The values that follow come from patent US12319742 (SHATTUCK LABS, dated 2025).

The target of assay [1] is T1, TNFRSF25 on lymphocytes in human PBMCs (human, UniProt Q93038 25-417).
T1 construct: whole, on cells; also called TNFRSF25 on CD4+ and CD8+ T cells and NK cells
T1 sequence (looked up): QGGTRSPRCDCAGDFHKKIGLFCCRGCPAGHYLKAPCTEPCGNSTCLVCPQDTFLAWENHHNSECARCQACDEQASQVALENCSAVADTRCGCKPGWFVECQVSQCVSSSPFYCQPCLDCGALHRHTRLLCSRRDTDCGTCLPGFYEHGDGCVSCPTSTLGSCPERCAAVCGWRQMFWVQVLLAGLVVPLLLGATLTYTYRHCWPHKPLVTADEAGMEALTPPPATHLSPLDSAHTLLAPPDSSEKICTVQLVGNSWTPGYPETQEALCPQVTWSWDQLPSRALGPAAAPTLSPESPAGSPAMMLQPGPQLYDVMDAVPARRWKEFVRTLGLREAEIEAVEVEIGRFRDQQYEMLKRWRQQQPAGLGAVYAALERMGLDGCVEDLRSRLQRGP
The experiment in a line: flow cytometry MFI on CD8+ T cells of human PBMCs (panel 1003_CD8+T), no stimulation, APC anti-human Fc. Background: A flow cytometer gives signals particle by particle.

Assay [2] addresses T1, TNFRSF25 on lymphocytes in human PBMCs. Nature of the assay: flow cytometry MFI on NK cells of human PBMCs, anti-CD3/CD28 stimulation 24 h, APC anti-human Fc. The protocol:
(§1) Human PBMCs were stimulated with either IL12+IL18 or anti-CD3/CD28 for 24 hours to assess binding of anti-TNFRSF25 to lymphocyte subsets.
(§2) Figure 9: FIG. 9. […] Figure 10: FIG. 10.

For assay [3] the target is unchanged. The experiment in a line: flow cytometry MFI on NK cells of human PBMCs, no stimulation, APC anti-human Fc.
Assay [4] has as its target T2, biotinylated recombinant human TNFRSF25-His tagged (Acro #TN5-H52H3) (human, UniProt Q93038 25-199, biotinylated).
T2 construct: treated as the same protein; also called recombinant biotin-conjugated human TNFRSF25 protein; DR3
T2 sequence (looked up): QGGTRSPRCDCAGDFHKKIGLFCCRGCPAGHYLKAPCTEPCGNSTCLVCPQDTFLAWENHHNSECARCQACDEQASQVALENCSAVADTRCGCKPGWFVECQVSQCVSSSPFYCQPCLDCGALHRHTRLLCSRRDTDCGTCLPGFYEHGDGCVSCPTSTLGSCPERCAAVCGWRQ
The experiment in a line: SPR (Biacore 8K); biotinylated TNFRSF25-His on streptavidin chip SA, SL-061 flowed; 1:1 binding. Here is the method:
(FIG. 5A) BLI assay was performed using the Octet Red 96e instrument. Streptavidin biosensors were loaded with biotinylated recombinant human TNFRSF25-His tagged (Acro #TN5-H52H3) as the ligand. […] (FIG. 5B) SPR was performed on a Biacore 8K instrument.
In general terms: SPR reads the build-up and loss of mass on a sensor chip optically.

Assay [5] concerns the target FcγR1 (CD64), BLI reagent (UniProt P12314 16-288, limits assumed). The experiment in a line: BLI; antibody as analyte at 300 nM on FcγR1. (BLI is a label-free optical method that tracks binding on a fibre tip over time.)
The target of assay [6] is T3, 4-1BB.
T3 construct: member of group m24; also called 4-1BB overexpressed in engineered mammalian cells
T3 sequence (chain, as listed by the source limits assumed): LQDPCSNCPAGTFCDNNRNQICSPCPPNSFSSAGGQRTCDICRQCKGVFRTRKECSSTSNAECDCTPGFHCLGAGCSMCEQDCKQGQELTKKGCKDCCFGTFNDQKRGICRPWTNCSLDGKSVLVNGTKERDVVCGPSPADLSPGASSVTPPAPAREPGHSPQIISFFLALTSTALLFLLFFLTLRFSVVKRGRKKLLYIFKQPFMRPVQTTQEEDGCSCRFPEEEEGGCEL
The experiment in a line: flow cytometry on engineered mammalian cells overexpressing 4-1BB, APC anti-human Fc.

Assay [7] concerns the target T1, TNFRSF25 on lymphocytes in human PBMCs. The experiment in a line: flow cytometry MFI on CD4+ T cells of human PBMCs, IL12+IL18 stimulation 24 h, APC anti-human Fc. The protocol:
as §1, §2

In assay [8] the target is T2, biotinylated recombinant human …. Nature of the assay: MSD competition; TNFRSF25 on plate, antibody titrated, then recombinant TL1A (TL1A-rabbit Fc) as competitor. Here is the method:
Figure 6: FIG. 6. […] Human TNFRSF25 was precoated on MSD assay plates followed by incubating with various concentrations of anti-TNFRSF25 antibodies.

Assay [9] has as its target T1, TNFRSF25 on lymphocytes in human PBMCs. Nature of the assay: flow cytometry MFI on CD4+ T cells of human PBMCs, anti-CD3/CD28 stimulation 24 h, APC anti-human Fc. Here is the method: as §1, §2

Chain of FcγR1 (CD64), BLI reagent (P12314 16-288 limits assumed): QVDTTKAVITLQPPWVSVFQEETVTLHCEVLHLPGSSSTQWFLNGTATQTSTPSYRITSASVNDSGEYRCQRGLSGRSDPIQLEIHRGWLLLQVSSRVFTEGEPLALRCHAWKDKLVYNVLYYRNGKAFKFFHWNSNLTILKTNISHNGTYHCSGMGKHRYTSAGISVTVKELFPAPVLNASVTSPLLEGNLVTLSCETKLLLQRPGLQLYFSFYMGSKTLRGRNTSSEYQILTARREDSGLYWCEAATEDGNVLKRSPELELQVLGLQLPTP

B1: SL-061 (antibody, human IgG1, kappa)
heavy: QVQLQQSGPGLVKPSQTLSLTCAISGDSVSGYSAAWNWIRQSPSRGLEWLGRTYYRSKWYNDYAVSVKSRITINPDTSKNQFSLQLNSVTPEDTAVYYCARDYYGSESYYNRGYYYYGMDVWGQGTTVTVSSASTKGPSVFPLAPSSKSTSGGTAALGCLVKDYFPEPVTVSWNSGALTSGVHTFPAVLQSSGLYSLSSVVTVPSSSLGTQTYICNVNHKPSNTKVDKKVEPKSCDKTHTCPPCPAPEAAGAPSVFLFPPKPKDTLMISRTPEVTCVVVDVSHEDPEVKFNWYVDGVEVHNAKTKPREEQYNSTYRVVSVLTVLHQDWLNGKEYKCKVSNKALPAPIEKTISKAKGQPREPQVYTLPPSREEMTKNQVSLTCLVKGFYPSDIAVEWESNGQPENNYKTTPPVLDSDGSFFLYSKLTVDKSRWQQGNVFSCSVMHEALHNHYTQKSLSLSPGK
light: AIQLTQSPSSLSASVGDRVTITCRASPGISSALAWYQQKPGKAPKLLMYDESSQESGVPSRFSGSGSGTDFTLTISSLQPEDFATYYCQQFNDYPLTFGGGTKVEIKRTVAAPSVFIFPPSDEQLKSGTASVVCLLNNFYPREAKVQWKVDNALQSGNSQESVTEQDSKDSTYSLSSTLTLSKADYEKHKVYACEVTHQGLSSPVTKSFNRGEC
notes: Same variable regions as SL-033; IgG1 with L234A/L235A+G237A; also called clone 061; SL-061 (L234A/L235A+G237A)
Turning to B1, the 50% effective concentration (EC50) (usually the concentration giving half of the maximal effect) in assay [1] was determined as 0.068 nM; in assay [2] it was 0.054 nM; in assay [3] it was 0.078 nM; in [7] it was 0.035 nM; in [9] it was 0.059 nM. Moreover, in assay [4], the Kd (commonly the concentration at which binding is half-saturated) amounted to 1.36 pM. Further, the binding result in assay [5] was “no binding (tested: 300 nM)”; in assay [6], “no binding (tested: about 20 nM)”. For the same molecule, in assay [8], the IC50 (in general, the concentration that gives 50% inhibition) worked out at 0.056 nM.
